Test results as given in US20240166737A1 (Janssen / Centocor, published 2024).
Changes are numbered by the printed parent chain. Names and notes keep the numbering of the source. Values belong to the binder of their own block, whether it stands above or below them.

How the values were obtained:
[1] = target: T1, CD3 epsilon on human T-cells (human, UniProt P07766 23-207); experiment: cell-based or functional assay
[2] = target: T2, MSNW10, recombinant full length human MSLN (human, UniProt Q13421 296-598); experiment: SPR, additional experiments
T2 construct: also called MSNW10.002; FL-MSLN
T2 sequence (Q13421 other isoform, or with tags, fused parts or gaps limits assumed): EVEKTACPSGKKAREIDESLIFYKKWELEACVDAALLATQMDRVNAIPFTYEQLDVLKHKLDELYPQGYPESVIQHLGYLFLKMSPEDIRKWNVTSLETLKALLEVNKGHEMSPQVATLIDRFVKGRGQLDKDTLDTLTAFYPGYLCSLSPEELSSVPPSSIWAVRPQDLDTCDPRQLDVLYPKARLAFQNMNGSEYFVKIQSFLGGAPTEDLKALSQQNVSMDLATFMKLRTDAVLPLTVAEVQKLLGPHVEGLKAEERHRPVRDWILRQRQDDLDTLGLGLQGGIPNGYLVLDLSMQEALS

[3] = target: T3, MSNW11, recombinant soluble (shed) MSLN lacking the C-terminal 7 AAs (human, UniProt Q13421 296-591); experiment: H838 cell binding with shed MSLN (MSNW11) added
T3 construct: domain: soluble MSLN lacking the C-terminal 7 AAs; also called MSNW11.002; soluble MSLN
T3 sequence (Q13421 other isoform, or with tags, fused parts or gaps limits assumed): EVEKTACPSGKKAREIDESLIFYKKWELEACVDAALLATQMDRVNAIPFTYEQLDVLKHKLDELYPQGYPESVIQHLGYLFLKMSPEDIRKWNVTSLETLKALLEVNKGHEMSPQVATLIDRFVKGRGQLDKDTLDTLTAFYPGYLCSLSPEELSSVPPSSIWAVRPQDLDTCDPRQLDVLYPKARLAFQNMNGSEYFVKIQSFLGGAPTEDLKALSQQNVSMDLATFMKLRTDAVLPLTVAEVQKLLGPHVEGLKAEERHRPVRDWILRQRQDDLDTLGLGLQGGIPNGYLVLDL
Text: Table 16 lists the immunization campaigns, antigens used, and number of clones returned at each stage of screening. Clones from which antibody sequences were successfully recovered were first screened for binding to recombinant full length human MSLN (MSNW10) and H838 cells that express MSLN on the cell surface. Binders were further screened for binding to cells in the presence of recombinant soluble MSLN lacking the C-terminal 7 AAs (MSNW11). This form of recombinant MSLN represented the product of cleavage at the closest cleavage site to the C-terminus known at the time, therefore, it theoretically represented the longest form of shed MSLN. The final concentration of shed MSLN in the assays was 100 nM.

[4] = target: T1, CD3 epsilon on human T-cells; experiment: T cell binding
[5] = target: T2, MSNW10, recombinant full length human …; experiment: SPR, recombinant full-length human MSLN

T1 sequence (P07766 23-207 limits assumed): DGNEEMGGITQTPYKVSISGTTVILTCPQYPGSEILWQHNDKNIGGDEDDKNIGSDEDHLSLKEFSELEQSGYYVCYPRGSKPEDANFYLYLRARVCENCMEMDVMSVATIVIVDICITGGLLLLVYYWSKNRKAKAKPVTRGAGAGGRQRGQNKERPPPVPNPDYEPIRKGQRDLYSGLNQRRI

Kd [2]: 0.9 nM | binding result [3]: no binding (tested: 100 nM)
B2: MSLNB592 (antibody, V domains shown)
VH: QVQLQQSGPGLVKPSQTLSLTCAISGDSVSSTSVAWNWIRQSPSGGLEWLGRTYYRSKWYNDYALSVKSRMTINPDTASNQFSLQLNSVTPEDTAVYYCSRGIVGALDYWGQGTLVTVSS
VL: DIVMTQSPLSLPVTPGEPASISCRSSQSLMYSNGYNHLDWYLQKPGQSPQFLIHLGSNRASGVPDRFSGSGSGTDFTLKISRVEAEDVGVYYCMQALRTPYTFGQGTKVEIK
notes: mAb; also called MSNB592

Kd [2]: 1.2 nM | binding result [3]: no binding (tested: 100 nM)
B3: MSLNB590 (antibody, V domains shown)
VH: QVQLQQSGPGLVKPSQTLSLTCAISGDSVSSTRAAWNWIRQSPSRGLEWLGRTYYRSKWYNDYTVSVKSRITINPDTSKNQFSLHLNSVTPEDSAVYFCARGNVGRVDFWGQGTLVTVSS
VL: EIVMTQSPLSLPVTPGEPASISCRSSQSLLHSDGYNYLDWYLQKPGQSPQLLIYLGSNRASGVPDRFSGSGSDTDFTLKISRVEAEDVGVYYCMQGLRTPLTFGPGTKLEIK
notes: mAb; also called MSNB590

Continued, binder first:

B1: MNC3B199 (bispecific antibody, V domains shown, not shown: a dimerising Fc or GST; small tags and cut ends)
VH 1: QVQLVESGPGQVKPSQTLSLTCAISGDSVSSNSAAWNWIRQSPSRGLEWLGRTYYRSKWYNDYAVSVKSRITINPDTSKNQFSLQLNSVTPEDTAVYYCARRDYSSGGFDYWGQGTTVTVSS
VL 1: not shown
VH 2: QVQLVQSGAEVKKPGSSVKVSCKASGYTFTRSTMHWVKQAPGQGLEWMGYINPSSAYTNYNQKFQGRVTLTADKSTSTAYMELSSLRSEDTAVYYCASPQVHYDYAGFPYWGQGTLVTVSS
VL 2: EIVLTQSPATLSASPGERVTLSCSASSSVSYMNWYQQKPGQAPRRLIYDSSKLASGVPARFSGSGSGRDYTLTISSLEPEDFAVYYCQQWSRNPPTFGGGTKVEIK
AC90 [nM], cytotoxicity, 1:1 E:T, 72 hours [1]: 7.32 nM | Max. Activity, cytotoxicity, 1:1 E:T, 72 hours [1]: 85% | qAC50 [nM], cytotoxicity, 1:1 E:T, 72 hours [1]: 1.19 nM

B4: CD3B2030-N106A (scFv, V domains shown)
VH: B1 VH 2 with M48I
VL: B1 VL 2 with L46W
EC50 [4]: 50 to 100 nM

B5: CD3B2051-N106A (scFv, V domains shown)
VH: B1 VH 2
VL: B1 VL 2
notes: CD3 targeting scFv
EC50 [4]: 50 to 100 nM

B6: MSNB133 (antibody, V domains shown)
VH: QVQLQQSGPGLVKPSQTLSLTCAISGDSVSSNRVAWNWIRQSPSRGLEWLGRTYYRSKWYNDFALSVKSRININADTSKSQFSLQLNSVTPEDTAVYYCARGIVGALDYWGQGTTVTVSS
VL: B3 VL with E1D, H31F, D33N, Y37S, G71E, D73G, G96A, R98Q, L101F
notes: mAb
Kd [5]: 3.7 nM | binding result [3]: no binding (tested: 100 nM)

B7: MSNB459 (antibody, V domains shown)
VH: B6 VH with Q1E, Q5V, R33S, F63Y, N72T, A75P, S80N, I103V, L107V, T115L
VL: B2 VL with S28N, M30L, H37S, F51L, H54Y, A96G, Y101L, Q105G
notes: mAb
Kd [5]: 3.5 nM | binding result [3]: no binding (tested: 100 nM)
